Reference: patent US20210030857A1 (NGM BIOPHARMACEUTICALS, published 2021)
Positions count from the first letter of the chain named.

Columns and labels:
[1] = target: human beta klotho / human FGFR1c receptor complex on cells (human, UniProt Q86Z14 1-1044; P11362 22-822); test: cell-based or functional assay
[2] = target: T1, human beta klotho mutant H657A on HEK-293T cells (human, UniProt Q86Z14 1-1044); test: shotgun alanine mutagenesis, FACS on HEK-293T cells, antibody 0.5 µg/ml
T1 sequence: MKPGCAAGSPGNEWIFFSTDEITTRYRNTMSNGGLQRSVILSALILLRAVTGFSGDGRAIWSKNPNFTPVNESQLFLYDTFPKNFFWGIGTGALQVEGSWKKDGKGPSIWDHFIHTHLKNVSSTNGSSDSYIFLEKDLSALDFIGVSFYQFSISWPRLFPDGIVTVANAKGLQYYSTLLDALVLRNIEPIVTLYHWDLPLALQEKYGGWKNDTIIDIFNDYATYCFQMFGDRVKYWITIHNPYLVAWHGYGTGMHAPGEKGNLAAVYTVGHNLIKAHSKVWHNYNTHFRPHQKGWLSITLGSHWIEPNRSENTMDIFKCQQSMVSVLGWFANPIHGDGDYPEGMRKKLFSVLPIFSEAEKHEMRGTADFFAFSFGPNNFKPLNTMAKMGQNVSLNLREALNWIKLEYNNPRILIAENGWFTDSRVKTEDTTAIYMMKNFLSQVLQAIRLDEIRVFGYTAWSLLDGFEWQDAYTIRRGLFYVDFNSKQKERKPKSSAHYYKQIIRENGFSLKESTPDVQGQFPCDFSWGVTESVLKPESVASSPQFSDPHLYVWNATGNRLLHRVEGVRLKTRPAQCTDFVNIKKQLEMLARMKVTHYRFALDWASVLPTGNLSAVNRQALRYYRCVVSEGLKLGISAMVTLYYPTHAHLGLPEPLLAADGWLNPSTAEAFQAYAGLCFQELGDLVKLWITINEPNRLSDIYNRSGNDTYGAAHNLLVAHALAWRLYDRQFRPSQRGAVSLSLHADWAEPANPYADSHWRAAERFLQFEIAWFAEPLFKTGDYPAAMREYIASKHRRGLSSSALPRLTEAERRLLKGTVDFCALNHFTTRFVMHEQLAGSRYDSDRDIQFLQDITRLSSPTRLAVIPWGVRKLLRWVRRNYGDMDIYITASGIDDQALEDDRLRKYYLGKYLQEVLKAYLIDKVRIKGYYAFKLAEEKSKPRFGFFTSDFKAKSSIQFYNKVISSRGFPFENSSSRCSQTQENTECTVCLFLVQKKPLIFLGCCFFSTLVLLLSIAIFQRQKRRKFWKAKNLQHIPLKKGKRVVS
Method: (§1) In order to further identify specific binding residues within human beta klotho KL2 domain, shotgun mutagenesis was used to separately mutate individual residues of the KL2 domain of human beta klotho to an alanine (e.g., residues F508A-L1008A). […] For example, screening of the beta klotho mutant proteins was conducted at a concentration of 0.5 μg/ml for the humanized 5H23 antibody, 1.0 μg/ml for the Fab fragment, and 2.0 μg/ml for a positive control polyclonal anti-beta klotho antibodies.
(§2) The resulting mapping identified three specific binding residues, H657, Y701 and R703, which were negative for binding by the humanized 5H23 antibody, but were positive for the control polyclonal anti-beta klotho antibodies. These residues represented amino acids whose side changes made the highest energetic contributions to the antibody-epitope interation as shown in Table 31. The locations of the three identified residues were modeled by showing them (dark spheres) at the equivalent positions on human cytosolic beta-glucosidase (PDB ID #2JFE; Tribolo et al., J. Mol. Biol. 370, 964-975 (2007)), identified by BLAST alignment of the two proteins as shown in FIG. 6.

[3] = target: T2, human beta klotho mutant Y701A on HEK-293T cells (human, UniProt Q86Z14 1-1044); test: as above
T2 sequence: T1 sequence with A657H, Y701A
Method: as §1, §2

Chain of human beta klotho / human FGFR1c receptor complex on cells (Q86Z14 whole entry, chain 1 of 2): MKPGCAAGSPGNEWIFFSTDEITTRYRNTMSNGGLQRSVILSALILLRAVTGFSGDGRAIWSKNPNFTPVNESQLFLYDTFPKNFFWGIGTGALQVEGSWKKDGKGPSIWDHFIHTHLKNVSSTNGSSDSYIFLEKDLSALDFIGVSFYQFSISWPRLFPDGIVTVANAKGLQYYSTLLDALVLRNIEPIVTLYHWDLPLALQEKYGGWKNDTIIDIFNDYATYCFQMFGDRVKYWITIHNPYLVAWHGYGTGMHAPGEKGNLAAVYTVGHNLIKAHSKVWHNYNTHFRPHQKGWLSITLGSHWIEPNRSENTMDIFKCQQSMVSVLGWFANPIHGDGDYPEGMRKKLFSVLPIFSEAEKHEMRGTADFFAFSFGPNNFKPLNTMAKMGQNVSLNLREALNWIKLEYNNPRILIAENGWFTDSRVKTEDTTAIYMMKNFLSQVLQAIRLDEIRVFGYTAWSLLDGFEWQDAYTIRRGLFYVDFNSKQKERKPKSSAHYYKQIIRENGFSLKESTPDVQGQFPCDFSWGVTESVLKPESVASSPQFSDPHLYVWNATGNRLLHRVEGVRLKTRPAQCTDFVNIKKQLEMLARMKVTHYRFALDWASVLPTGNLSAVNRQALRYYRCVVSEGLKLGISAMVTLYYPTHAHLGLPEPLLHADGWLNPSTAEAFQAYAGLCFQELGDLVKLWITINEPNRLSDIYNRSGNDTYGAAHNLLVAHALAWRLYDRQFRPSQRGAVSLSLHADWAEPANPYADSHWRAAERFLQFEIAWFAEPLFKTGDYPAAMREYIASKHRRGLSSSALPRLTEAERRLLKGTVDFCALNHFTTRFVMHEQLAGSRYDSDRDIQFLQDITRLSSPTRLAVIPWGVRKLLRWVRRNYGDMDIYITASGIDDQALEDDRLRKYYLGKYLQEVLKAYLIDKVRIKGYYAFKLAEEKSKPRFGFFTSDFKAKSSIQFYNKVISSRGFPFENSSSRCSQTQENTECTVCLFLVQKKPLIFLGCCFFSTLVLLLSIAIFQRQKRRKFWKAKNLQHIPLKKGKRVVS
Chain of human beta klotho / human FGFR1c receptor complex on cells (P11362 22-822 limits assumed, chain 2 of 2): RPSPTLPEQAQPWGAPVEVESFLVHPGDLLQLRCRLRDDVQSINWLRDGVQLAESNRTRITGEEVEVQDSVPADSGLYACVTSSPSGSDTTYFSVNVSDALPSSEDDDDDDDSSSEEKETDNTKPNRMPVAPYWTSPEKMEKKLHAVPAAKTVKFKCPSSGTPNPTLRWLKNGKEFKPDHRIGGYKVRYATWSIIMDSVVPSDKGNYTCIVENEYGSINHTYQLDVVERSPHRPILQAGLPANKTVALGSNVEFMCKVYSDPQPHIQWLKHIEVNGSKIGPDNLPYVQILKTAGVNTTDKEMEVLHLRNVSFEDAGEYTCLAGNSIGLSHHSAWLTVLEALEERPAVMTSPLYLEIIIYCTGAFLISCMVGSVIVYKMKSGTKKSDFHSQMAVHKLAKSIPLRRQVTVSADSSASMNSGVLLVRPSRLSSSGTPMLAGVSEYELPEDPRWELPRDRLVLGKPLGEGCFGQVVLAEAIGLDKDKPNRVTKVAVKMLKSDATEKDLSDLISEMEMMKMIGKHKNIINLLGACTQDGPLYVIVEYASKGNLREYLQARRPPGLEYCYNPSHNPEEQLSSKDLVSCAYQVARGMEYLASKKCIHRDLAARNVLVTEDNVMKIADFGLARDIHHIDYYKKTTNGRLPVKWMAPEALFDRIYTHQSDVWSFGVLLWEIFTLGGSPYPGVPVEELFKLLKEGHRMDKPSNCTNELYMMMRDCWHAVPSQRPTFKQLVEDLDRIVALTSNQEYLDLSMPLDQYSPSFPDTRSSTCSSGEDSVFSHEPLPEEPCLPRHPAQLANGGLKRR

B1: humanized 5H23 antibody (VH SEQ ID NO: 271 and VL SEQ ID NO: 276) (antibody, V domains shown)
VH: QVQLQQSGAEVKKPGASVKVSCKASGYTFTSYDINWVRQAPGQGLEWIGWIYPGDGSTKYNEKFKGKATITRDTSASTAYMELSSLRSEDTAVYFCARSDYYGSRSFAYWGQGTLVTVSS
VL: DIVMTQSPDSLAVSLGERATINCRASKSVSTSGYVYMHWYQQKPGQPPKLLIYLASYLESGVPDRFSGSGSGTDFTLTISSVQAEDVAVYYCQHSRDLTFPFGGGTKLEIK
notes: also called h5H23; h5H23 (Prep 1)
EC50 adipocyte [1]: 11.2 nM
EC50 reporter assay [1]: 0.6 nM
Binding Reactivity (% WT) [2]: 16.9 % WT
Binding Reactivity (% WT) [3]: 0.64 % WT
